Paper PMC5736104 (Nature, 2017)

Target: the molecule itself
Assay: cryo-EM structure

B1: Hrd1, truncated after the RING finger domain (amino acids 1-407) (domain or fragment, S. cerevisiae, UniProt Q08109 1-407, looked up)
chain: MVPENRRKQLAIFVVVTYLLTFYCVYSATKTSVSFLQVTLKLNEGFNLMVLSIFILLNSTLLWQLLTKLLFGELRLIEHEHIFERLPFTIINTLFMSSLFHERYFFTVAFFGLLLLYLKVFHWILKDRLEALLQSINDSTTMKTLIFSRFSFNLVLLAVVDYQIITRCISSIYTNQKSDIESTSLYLIQVMEFTMLLIDLLNLFLQTCLNFWEFYRSQQSLSNENNHIVHGDPTDENTVESDQSQPVLNDDDDDDDDDRQFTGLEGKFMYEKAIDVFTRFLKTALHLSMLIPFRMPMMLLKDVVWDILALYQSGTSLWKIWRNNKQLDDTLVTVTVEQLQNSANDDNICIICMDELIHSPNQQTWKNKNKKPKRLPCGHILHLSCLKNWMERSQTCPICRLPVFDEK
For B1, the “stoichiometry N” value was 2.
